1 molecule from article PMC2291188 (The Journal of Cell Biology, 1995) can be followed below.

The target in this assay is T1, proPC2 (proform of the prohormone convertase PC2) (UniProt P28841 25-637).
T1 sequence (looked up): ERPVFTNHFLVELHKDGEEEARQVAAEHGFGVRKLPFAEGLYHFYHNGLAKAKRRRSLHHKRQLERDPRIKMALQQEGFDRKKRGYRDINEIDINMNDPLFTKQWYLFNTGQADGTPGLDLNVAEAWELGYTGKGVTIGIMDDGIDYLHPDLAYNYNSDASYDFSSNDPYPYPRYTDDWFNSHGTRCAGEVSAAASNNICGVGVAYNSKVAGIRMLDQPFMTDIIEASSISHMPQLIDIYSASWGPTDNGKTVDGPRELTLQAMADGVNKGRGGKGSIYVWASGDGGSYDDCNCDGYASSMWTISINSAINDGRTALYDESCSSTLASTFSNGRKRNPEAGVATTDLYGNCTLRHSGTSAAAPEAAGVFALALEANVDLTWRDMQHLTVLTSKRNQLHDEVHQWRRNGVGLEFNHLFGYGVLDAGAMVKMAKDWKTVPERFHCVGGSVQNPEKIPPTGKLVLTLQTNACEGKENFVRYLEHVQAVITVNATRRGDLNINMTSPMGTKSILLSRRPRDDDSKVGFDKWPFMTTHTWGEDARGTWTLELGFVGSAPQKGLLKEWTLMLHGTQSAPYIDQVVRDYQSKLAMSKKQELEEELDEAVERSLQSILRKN
The assay can be described thus: co-IP.

Where “and” joins values, the source holds several entries; their conditions need not be identical. Equal values may be shown once.

B1: 27 kD 7B2 (rat) (natural protein, UniProt P27682 25-210, looked up)
chain: YSPRTPDRVSETDIQRLLHGVMEQLGIARPRVEYPAHQAMNLVGPQSIEGGAHEGLQHLGPFGNIPNIVAELTGDNIPKDFSEDQGYPDPPNPCPLGKTADDGCLENAPDTAEFSREFQLDQHLFDPEHDYPGLGKWNKKLLYEKMKGGQRRKRRSVNPYLQGKRLDNVVAKKSVPHFSEEEKEPE
As to B1, the “stoichiometry N” value is 1.12 mol 7B2 per mol PC2 (molar ratio, Clone#1) and 1.09 mol 7B2 per mol PC2 (molar ratio, Clone#2).
